The values below come from PMC3539201.

Assay [1] has as its target torsinA (endogenous, mouse fibroblasts) (mouse (endogenous in MFs)) (UniProt Q9ER39). In words: co-IP.
In assay [2] the target is YFP-human-nesprin-3 (human) (UniProt Q6ZMZ3). Briefly: co-IP.
Chain of YFP-human-nesprin-3 (human) (Q6ZMZ3 whole entry): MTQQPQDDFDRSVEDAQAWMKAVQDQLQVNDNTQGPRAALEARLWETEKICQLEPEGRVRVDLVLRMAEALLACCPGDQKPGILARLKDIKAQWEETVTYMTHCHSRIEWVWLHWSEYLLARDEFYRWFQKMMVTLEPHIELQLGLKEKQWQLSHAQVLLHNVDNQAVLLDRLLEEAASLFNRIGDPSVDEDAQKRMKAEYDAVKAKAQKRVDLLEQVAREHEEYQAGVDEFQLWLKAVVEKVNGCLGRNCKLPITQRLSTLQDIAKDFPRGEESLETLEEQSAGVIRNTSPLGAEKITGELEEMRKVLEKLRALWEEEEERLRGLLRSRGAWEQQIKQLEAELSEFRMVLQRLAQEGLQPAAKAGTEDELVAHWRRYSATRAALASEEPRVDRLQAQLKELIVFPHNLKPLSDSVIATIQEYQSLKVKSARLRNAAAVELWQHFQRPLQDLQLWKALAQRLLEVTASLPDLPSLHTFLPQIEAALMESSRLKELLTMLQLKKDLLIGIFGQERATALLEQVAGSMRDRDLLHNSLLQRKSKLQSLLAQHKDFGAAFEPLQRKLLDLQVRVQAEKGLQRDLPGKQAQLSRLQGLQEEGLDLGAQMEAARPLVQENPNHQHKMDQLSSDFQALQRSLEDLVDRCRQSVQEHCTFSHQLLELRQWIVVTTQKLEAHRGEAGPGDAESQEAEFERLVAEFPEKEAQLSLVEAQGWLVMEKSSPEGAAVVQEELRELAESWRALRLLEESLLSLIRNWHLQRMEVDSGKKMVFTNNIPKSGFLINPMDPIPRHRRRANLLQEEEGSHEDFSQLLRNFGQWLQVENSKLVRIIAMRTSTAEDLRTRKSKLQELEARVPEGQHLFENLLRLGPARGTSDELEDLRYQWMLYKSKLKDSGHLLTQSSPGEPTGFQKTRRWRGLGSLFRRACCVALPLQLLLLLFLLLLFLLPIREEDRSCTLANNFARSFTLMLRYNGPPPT

Chain of torsinA (endogenous, mouse fibroblasts) (mouse (endogenous in MFs)) (Q9ER39 21-333): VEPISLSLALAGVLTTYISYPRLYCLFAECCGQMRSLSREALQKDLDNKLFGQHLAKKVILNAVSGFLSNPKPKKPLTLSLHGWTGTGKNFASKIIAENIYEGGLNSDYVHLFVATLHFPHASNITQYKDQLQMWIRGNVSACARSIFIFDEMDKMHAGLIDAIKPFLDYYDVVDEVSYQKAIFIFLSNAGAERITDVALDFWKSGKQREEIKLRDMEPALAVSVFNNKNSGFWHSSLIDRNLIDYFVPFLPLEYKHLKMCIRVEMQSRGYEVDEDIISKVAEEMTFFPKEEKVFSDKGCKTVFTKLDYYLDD
Chain of torsinAΔE (human, expressed in 293T cells) (O14656 21-332, stated change not applied): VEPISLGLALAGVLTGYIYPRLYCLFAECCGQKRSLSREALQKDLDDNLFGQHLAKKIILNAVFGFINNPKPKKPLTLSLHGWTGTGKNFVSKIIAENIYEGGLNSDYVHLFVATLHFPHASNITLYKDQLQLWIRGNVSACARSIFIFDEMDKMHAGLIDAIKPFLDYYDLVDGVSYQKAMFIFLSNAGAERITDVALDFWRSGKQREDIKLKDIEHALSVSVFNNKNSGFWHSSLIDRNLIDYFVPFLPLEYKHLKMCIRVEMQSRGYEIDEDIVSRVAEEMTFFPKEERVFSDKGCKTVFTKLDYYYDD

“plectin (endogenous, mouse fibroblasts), Q9QXS1 1-4691”: the percentage immunoprecipitated from lysates in assay [1] turned out to be 7%.

As to “torsinAΔE (human, expressed in 293T cells) (from UniProt O14656 21-332) (natural protein)”, in assay [2], the percentage immunoprecipitated with YFP-nesprin-3 in the presence of ATP came to 25%.
